# Source: paper PMC5075775
# Test system: monoclonal anti-DNA antibody ED-10
# Test: SPR
# Conditions: ka 1.009e8, kd 7.860e-1; text also claims higher binding of SEQ4; LNA at 4, 10, 13, 19 of strand 1 by plus signs (Table 1 lists 4, 10, 14, 19); SPR: Biacore X100, SA chip, immobilisation in HBS-EP+ (0.1 M HEPES, 1.5 M NaCl, 30 mM EDTA, 0.5% P20), 37 C; ELISA: antigens coated in PBS, diluent PBS …
row,Sequence,Kd [nM]
1,TCCTCTCTTTCTCTTTCTCTT (double strand) [SEQ4 biotinylated LNA/DNA duplex (SPR)],779

# Same assay, conditions: ka 3.341e3, kd 3.531e-4; SPR: Biacore X100, SA chip, immobilisation in HBS-EP+ (0.1 M HEPES, 1.5 M NaCl, 30 mM EDTA, 0.5% P20), 37 C; ELISA: antigens coated in PBS, diluent PBS …
row,Sequence,Kd [nM]
1,TCCTCTCTTTCTCTTTCTCTT (double strand) [SEQ5 biotinylated duplex (SPR)],106

# Test system: monoclonal anti-dsDNA antibody HYB 331-01, clone 35I9
# Test: ELISA
# Conditions: LNA at 1, 4 of strand 1; SPR: Biacore X100, SA chip, immobilisation in HBS-EP+ (0.1 M HEPES, 1.5 M NaCl, 30 mM EDTA, 0.5% P20), 37 C; ELISA: antigens coated in PBS, diluent PBS …
row,Sequence,binding signal [A450]
1,TCCTCTCTTTCTCTTTCTCTT (double strand) [D20],0.89

# Same assay, conditions: LNA at 4, 13, 19 of strand 1; SPR: Biacore X100, SA chip, immobilisation in HBS-EP+ (0.1 M HEPES, 1.5 M NaCl, 30 mM EDTA, 0.5% P20), 37 C; ELISA: antigens coated in PBS, diluent PBS …
row,Sequence,binding signal [A450]
1,TCCTCTCTTTCTCTTTCTCTT (double strand) [D19 (LNA pattern of SEQ1)],1.12

# Same assay, conditions: LNA at 4 of strand 1; SPR: Biacore X100, SA chip, immobilisation in HBS-EP+ (0.1 M HEPES, 1.5 M NaCl, 30 mM EDTA, 0.5% P20), 37 C; ELISA: antigens coated in PBS, diluent PBS …
row,Sequence,binding signal [A450]
1,TCCTCTCTTTCTCTTTCTCTT (double strand) [D22],0.56

# Same assay, conditions: LNA at 11, 13 of strand 1; SPR: Biacore X100, SA chip, immobilisation in HBS-EP+ (0.1 M HEPES, 1.5 M NaCl, 30 mM EDTA, 0.5% P20), 37 C; ELISA: antigens coated in PBS, diluent PBS …
row,Sequence,binding signal [A450]
1,TCCTCTCTTTCTCTTTCTCTT (double strand) [D21],0.77

# Same assay, conditions: SPR: Biacore X100, SA chip, immobilisation in HBS-EP+ (0.1 M HEPES, 1.5 M NaCl, 30 mM EDTA, 0.5% P20), 37 C; ELISA: antigens coated in PBS, diluent PBS …
row,Sequence,binding signal [A450]
1,TTATATTTATATTTATATAAT (double strand) [D6 (AT)],1
2,TTGTGTTTGTGTTTGTGTGGT (double strand) [D7 (GT)],1.87
3,"ATTTATTTTTATATTTATATT (double strand) [D8 (AT, SEQ6)]",1.27
4,TCCTCTCTTT (double strand) [D15 (TC 10mer)],0.9
5,TTCTCTTTCTCTTTCTCTCCT (double strand) [D5 (CT)],0.98
6,"TGAACTCTATGTCTGTATCAT (double strand) [D14 (ATCG mixmer, SEQ7)]",1.55
7,ATTTATTTTT (double strand) [D16 (AT 10mer)],0.76
8,TAATATATTTATATTTATATT (double strand) [D2 (TA)],1.11
9,TCCTCTCTTTCTCTTTCTCTT (double strand) [D1 (SEQ5)],1.41
10,TGGTGTGTTTGTGTTTGTGTT (double strand) [D3 (TG)],1.13
11,TCCTCTCTTTCTCTTTCTCTTTCCTCTCTTTCTCTTTCTCTTTCCTCTCTTTCTCTTTCTCTT (double strand) [D17 (TC 63mer)],1.5
12,AGGGAGGGGGAGAGGGAGAGG (double strand) [D11 (AG)],0.78
13,GGAGAGGGAGAGGGGGAGGGA (double strand) [D13 (GA)],0.89
14,ATTTATTTTTATATTTATATTATTTATTTTTATATTTATATTATTTATTTTTATATTTATATT (double strand) [D18 (AT 63mer)],1.44
15,CCACACCCACACCCCCACCCA (double strand) [D12 (CA)],0.78
